Among the data in the RNAGym collection of RNA variant scans (doi:10.7554/elife.80360) are self-cleavage values, retold here.

B1: HDV Ribozyme (parent)
chain: GGCCGGCAUGGUCCCAGCCUCCUCGCUGGCGCCGGCUGGGCAACAUUCCGAGGGGACCGUCCCCUCGGUAAUGGCGAAUGGGACCCA

The variants in the series derive from B1. Briefly: self-cleavage, relative activity (ratio to wild type); higher = more cleavage; co-transcriptional.
In the case of GGCCGGCAUGGUCCCAGCCUCCUCGCUGGCGCCGGCUGGGCAACAUUCCGAGGGGAGCGUCCCCUCUGUAAUGGCGAAUGGGACCCA, the self-cleavage came to 0.8.

For the variant GGCCGGCAUGGUCCCAGCCUCCUCGCUGGCGCCGGCUGGGCAACAUUCCGAGGGGAGCGUCCCCUCCGUAAUGGCGAAUGGGACCCA, the self-cleavage was 0.923.

On to GGCCGGCAUGGUCCCAGCCUCCUCGCUGGCGCCGGCUGGGCAACAUUCCGAGGGGUCCGUCCCCUCGGUAAUGGCGAAUCGGACCCA, for which the self-cleavage amounted to 0.22.

For the variant GGCCGGCAUGGUCCCAGCCUCCUCGCUGGCGCCGGCUGGGCAACAUUCCGAGGGGUCCGUCCCCUCGGUAAUGGCGAAUAGGACCCA, the self-cleavage was 0.358.

For the variant GGCCGGCAUGGUCCCAGCCUCCUCGCUGGCGCCGGCUGGGCAACAUUCCGAGGGGUCCGUCCCCUCGGUAAUGGCGAAUUGGACCCA, the self-cleavage stood at 0.237.

On to GGCCGGCAUGGUCCCAGCCUCCUCGCUGGCGCCGGCUGGGCAACAUUCCGAGGGGUCCGUCCCCUCCGUAAUGGCGAAUGGGACCCA, for which the self-cleavage worked out at 0.904.

For the variant GGCCGGCAUGGUCCCAGCCUCCUCGCUGGCGCCGGCUGGGCAACAUUCCGAGGGGAGCGUCCCCUCGGUAAUGGCGCAUGGGACCCA, the self-cleavage stood at 0.237.

For GGCCGGCAUGGUCCCAGCCUCCUCGCUGGCGCCGGCUGGGCAACAUUCCGAGGGGAUCGUCCCCUCGGUAAUGGCGAAUGGGAGCCA, the self-cleavage amounted to 0.673.

Take GGCCGGCAUGGUCCCAGCCUCCUCGCUGGCGCCGGCUGGGCAACAUUCCGAGGGGAACGUCCCCUCGGUAAUGGCGAAUGGGACCGA: the self-cleavage amounted to 0.89.

Take GGCCGGCAUGGUCCCAGCCUCCUCGCUGGCGCCGGCUGGGCAACAUUCCGAGGGGUCCGUCCCCUCGGUAAUGCCGAAUGGGACCCA: the self-cleavage was 0.317.

For the variant GGCCGGCAUGGUCCCAGCCUCCUCGCUGGCGCCGGCUGGGCAACAUUCCGAGGGGAACGUCCCCUCGGGAAUGGCGAAUGGGACCCA, the self-cleavage is 0.675.

Take GGCCGGCAUGGUCCCAGCCUCCUCGCUGGCGCCGGCUGGGCAACAUUCCGAGGGGAACGUCCCCUCGGUAAUGGGGAAUGGGACCCA: the self-cleavage came to 0.0978.

On to GGCCGGCAUGGUCCCAGCCUCCUCGCUGGCGCCGGCUGGGCAACAUUCCGAGGGGUCCGCCCCCUCGGUAAUGGCGAAUGGGACCCA, for which the self-cleavage is 1.13.

For GGCCGGCAUGGUCCCAGCCUCCUCGCUGGCGCCGGCUGGGCAACAUUCCGAGGGGAGCGUCCCCUCGGUAAUGGCGAAUGGAACCCA, the self-cleavage came to 0.302.

Turning to GGCCGGCAUGGUCCCAGCCUCCUCGCUGGCGCCGGCUGGGCAACAUUCCGAGGGGAUCGUCCCCUCGGUCAUGGCGAAUGGGACCCA, the self-cleavage came out at 0.855.

Turning to GGCCGGCAUGGUCCCAGCCUCCUCGCUGGCGCCGGCUGGGCAACAUUCCGAGGGGAUCGUCCCAUCGGUAAUGGCGAAUGGGACCCA, the self-cleavage amounted to 0.901.

Take GGCCGGCAUGGUCCCAGCCUCCUCGCUGGCGCCGGCUGGGCAACAUUCCGAGGGGAUCGUCCCGUCGGUAAUGGCGAAUGGGACCCA: the self-cleavage worked out at 0.946.

As for GGCCGGCAUGGUCCCAGCCUCCUCGCUGGCGCCGGCUGGGCAACAUUCCGAGGGGUCCGUCCCCUCGGUAAAGGCGAAUGGGACCCA, the self-cleavage is 0.764.

With GGCCGGCAUGGUCCCAGCCUCCUCGCUGGCGCCGGCUGGGCAACAUUCCGAGGGGAACGUCCCCUUGGUAAUGGCGAAUGGGACCCA, the self-cleavage came to 1.18.

As to GGCCGGCAUGGUCCCAGCCUCCUCGCUGGCGCCGGCUGGGCAACAUUCCGAGGGGAGCGUCCCCUCGGUAAUGGCGAAUGGGGCCCA, the self-cleavage was found to be 0.917.

As for GGCCGGCAUGGUCCCAGCCUCCUCGCUGGCGCCGGCUGGGCAACAUUCCGAGGGGAACGUCCCCUCGGUAAUGCCGAAUGGGACCCA, the self-cleavage was determined as 0.108.

As for GGCCGGCAUGGUCCCAGCCUCCUCGCUGGCGCCGGCUGGGCAACAUUCCGAGGGGAACGUCCCCUCGCUAAUGGCGAAUGGGACCCA, the self-cleavage was determined as 1.06.

Consider GGCCGGCAUGGUCCCAGCCUCCUCGCUGGCGCCGGCUGGGCAACAUUCCGAGGGGAGCGUCCCCUAGGUAAUGGCGAAUGGGACCCA, for which the self-cleavage was 0.923.

In the case of GGCCGGCAUGGUCCCAGCCUCCUCGCUGGCGCCGGCUGGGCAACAUUCCGAGGGGAGCGUCCCCUUGGUAAUGGCGAAUGGGACCCA, the self-cleavage worked out at 0.848.

Consider GGCCGGCAUGGUCCCAGCCUCCUCGCUGGCGCCGGCUGGGCAACAUUCCGAGGGGAACGUCCCCUCGGUAAUCGCGAAUGGGACCCA, for which the self-cleavage amounted to 0.523.

As to GGCCGGCAUGGUCCCAGCCUCCUCGCUGGCGCCGGCUGGGCAACAUUCCGAGGGGAACGUCCCCUCGGUAAUAGCGAAUGGGACCCA, the self-cleavage turned out to be 0.708.

For GGCCGGCAUGGUCCCAGCCUCCUCGCUGGCGCCGGCUGGGCAACAUUCCGAGGGGAUCGUACCCUCGGUAAUGGCGAAUGGGACCCA, the self-cleavage came to 1.32.

With GGCCGGCAUGGUCCCAGCCUCCUCGCUGGCGCCGGCUGGGCAACAUUCCGAGGGGAUCGUCCCCUCGGUAAUGGCGAAUGGGCCCCA, the self-cleavage was 0.665.

For the variant GGCCGGCAUGGUCCCAGCCUCCUCGCUGGCGCCGGCUGGGCAACAUUCCGAGGGGAACGUCCCCUCGGUAAUGGCGAAUGGGACUCA, the self-cleavage stood at 1.05.

Consider GGCCGGCAUGGUCCCAGCCUCCUCGCUGGCGCCGGCUGGGCAACAUUCCGAGGGGAACGUCCCCUCGGUAAUGGCGAAAGGGACCCA, for which the self-cleavage is 0.806.

On to GGCCGGCAUGGUCCCAGCCUCCUCGCUGGCGCCGGCUGGGCAACAUUCCGAGGGGUCCGUCCCCUCGGCAAUGGCGAAUGGGACCCA, for which the self-cleavage was found to be 0.733.

With GGCCGGCAUGGUCCCAGCCUCCUCGCUGGCGCCGGCUGGGCAACAUUCCGAGGGGUCCUUCCCCUCGGUAAUGGCGAAUGGGACCCA, the self-cleavage turned out to be 1.08.
